Source: article PMC9482650, “Quantitative fragmentomics allow affinity mapping of interactomes” (Nature Communications, 2022)

What was measured:
Assay in all cases: holdup assay
Parameters in all cases: key: below the threshold = too weak to quantify, mostly under pKd 3.1 to 4
APBA1_1, Q02410 = target: T1, APBA1_1, Q02410
T1 sequence (Q02410 651-752, limits assumed, looked up): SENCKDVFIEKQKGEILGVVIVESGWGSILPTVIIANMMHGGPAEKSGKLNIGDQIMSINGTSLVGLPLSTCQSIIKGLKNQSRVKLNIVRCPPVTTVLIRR

HTRA3, P83110 = target: T2, HTRA3, P83110
T2 sequence (P83110 354-453, limits assumed, looked up): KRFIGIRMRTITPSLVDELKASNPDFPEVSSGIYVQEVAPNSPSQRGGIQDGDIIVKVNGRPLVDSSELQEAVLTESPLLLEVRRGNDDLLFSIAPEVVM

GRIP1_5, Q9Y3R0 = target: T3, GRIP1_5, Q9Y3R0
T3 sequence (Q9Y3R0 568-668, limits assumed, looked up): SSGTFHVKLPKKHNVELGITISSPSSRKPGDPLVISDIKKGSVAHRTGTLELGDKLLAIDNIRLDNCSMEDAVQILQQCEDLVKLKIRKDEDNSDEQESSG

NOS1, P29475 = target: NOS1, P29475
NOS1, P29475, sequence (P29475 9-101): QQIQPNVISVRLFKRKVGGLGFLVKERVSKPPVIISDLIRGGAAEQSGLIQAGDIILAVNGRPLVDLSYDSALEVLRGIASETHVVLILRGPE

MAGI2_4, Q86UL8 = target: MAGI2_4, Q86UL8
MAGI2_4, Q86UL8, sequence (Q86UL8 772-865): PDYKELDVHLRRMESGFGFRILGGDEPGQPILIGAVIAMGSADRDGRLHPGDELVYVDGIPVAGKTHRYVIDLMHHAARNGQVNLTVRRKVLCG

FRMPD1, Q5SYB0 = target: T4, FRMPD1, Q5SYB0
T4 sequence (Q5SYB0 52-145, limits assumed, looked up): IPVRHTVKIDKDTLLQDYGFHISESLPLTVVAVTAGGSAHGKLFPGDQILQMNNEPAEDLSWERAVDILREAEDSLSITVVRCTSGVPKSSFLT

GIPC2, Q8TF65 = target: GIPC2, Q8TF65
GIPC2, Q8TF65, sequence (Q8TF65 112-203): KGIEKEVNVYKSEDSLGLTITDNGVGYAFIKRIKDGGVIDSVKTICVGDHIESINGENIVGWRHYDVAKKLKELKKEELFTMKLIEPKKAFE

GRIP1_4, Q9Y3R0 = target: T5, GRIP1_4, Q9Y3R0
T5 sequence (Q9Y3R0 467-571, limits assumed, looked up): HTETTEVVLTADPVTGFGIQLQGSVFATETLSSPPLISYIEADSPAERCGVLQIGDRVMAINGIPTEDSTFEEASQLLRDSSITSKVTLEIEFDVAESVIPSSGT

SCRIB_2, Q14160 = target: SCRIB_2, Q14160
SCRIB_2, Q14160, sequence (Q14160 857-960): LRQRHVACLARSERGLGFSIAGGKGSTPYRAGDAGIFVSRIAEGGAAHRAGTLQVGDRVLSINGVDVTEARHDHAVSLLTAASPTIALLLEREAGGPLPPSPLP

TIAM2, Q8IVF5 = target: T6, TIAM2, Q8IVF5
T6 sequence (Q8IVF5 885-986, limits assumed, looked up): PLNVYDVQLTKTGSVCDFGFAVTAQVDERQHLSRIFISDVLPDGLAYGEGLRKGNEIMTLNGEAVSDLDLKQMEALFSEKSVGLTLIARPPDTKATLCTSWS

HTRA1, Q92743 = target: HTRA1, Q92743
HTRA1, Q92743, sequence (Q92743 360-477): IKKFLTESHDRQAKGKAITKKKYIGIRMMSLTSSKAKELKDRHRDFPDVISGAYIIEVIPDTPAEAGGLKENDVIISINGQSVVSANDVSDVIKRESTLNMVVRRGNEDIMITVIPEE

TJP3_3, O95049 = target: T7, TJP3_3, O95049
T7 sequence (O95049 375-456, limits assumed, looked up): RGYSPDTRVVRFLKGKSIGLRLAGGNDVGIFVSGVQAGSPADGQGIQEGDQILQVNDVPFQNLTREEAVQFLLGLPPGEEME

DLG4_3, P78352 = target: DLG4_3, P78352
DLG4_3, P78352, sequence (P78352 306-403): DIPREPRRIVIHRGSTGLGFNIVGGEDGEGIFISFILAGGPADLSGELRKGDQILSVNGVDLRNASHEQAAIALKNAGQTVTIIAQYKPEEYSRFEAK

DFNB31_2, Q9P202 = target: T8, DFNB31_2, Q9P202
T8 sequence (Q9P202 274-371, limits assumed, looked up): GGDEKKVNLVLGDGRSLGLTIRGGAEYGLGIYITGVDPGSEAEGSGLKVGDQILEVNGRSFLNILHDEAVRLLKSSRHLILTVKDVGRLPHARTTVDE

APBA1_2, Q02410 = target: T9, APBA1_2, Q02410
T9 sequence (Q02410 742-832, limits assumed, looked up): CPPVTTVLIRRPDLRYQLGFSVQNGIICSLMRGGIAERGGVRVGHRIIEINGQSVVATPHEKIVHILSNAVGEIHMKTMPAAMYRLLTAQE

GOPC, Q9HD26 = target: GOPC, Q9HD26
PDZRN3_1, Q9UPQ7 = target: T10, PDZRN3_1, Q9UPQ7
T10 sequence (Q9UPQ7 244-349, limits assumed, looked up): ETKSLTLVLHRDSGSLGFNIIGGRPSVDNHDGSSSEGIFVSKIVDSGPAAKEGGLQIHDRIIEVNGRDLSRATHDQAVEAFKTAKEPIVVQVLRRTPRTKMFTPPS

SCRIB_3, Q14160 = target: SCRIB_3, Q14160
SCRIB_3, Q14160, sequence (Q14160 999-1103): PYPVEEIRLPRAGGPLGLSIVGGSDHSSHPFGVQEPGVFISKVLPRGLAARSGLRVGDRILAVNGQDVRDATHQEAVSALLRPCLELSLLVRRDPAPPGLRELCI

HTRA4, P83105 = target: T11, HTRA4, P83105
T11 sequence (P83105 378-476, limits assumed, looked up): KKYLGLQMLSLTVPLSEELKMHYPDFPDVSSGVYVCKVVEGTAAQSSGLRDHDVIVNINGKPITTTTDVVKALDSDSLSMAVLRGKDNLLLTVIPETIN

MPDZ_10, O75970 = target: T12, MPDZ_10, O75970; conditions: plain residues with an end cap or a label only (N-terminal biotin on a linker: ttds)
T12 sequence (O75970 1624-1722, limits assumed, looked up): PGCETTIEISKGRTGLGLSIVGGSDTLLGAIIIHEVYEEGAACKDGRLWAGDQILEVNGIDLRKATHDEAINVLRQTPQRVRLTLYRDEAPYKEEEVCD

TJP2_1, Q9UDY2 = target: TJP2_1, Q9UDY2
TJP2_1, Q9UDY2, sequence (Q9UDY2 24-128): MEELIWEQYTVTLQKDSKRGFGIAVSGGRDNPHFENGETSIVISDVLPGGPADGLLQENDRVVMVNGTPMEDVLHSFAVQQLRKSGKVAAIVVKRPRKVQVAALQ

NHERF4_1, Q86UT5-2 = target: NHERF4_1, Q86UT5-2
NHERF4_1, Q86UT5-2, sequence (Q86UT5 other isoform, or with tags, fused parts or gaps): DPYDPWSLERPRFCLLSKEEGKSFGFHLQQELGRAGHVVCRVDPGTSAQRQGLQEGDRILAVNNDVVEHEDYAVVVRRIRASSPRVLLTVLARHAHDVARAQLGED

Inadl_1, Q8NI35 = target: Inadl_1, Q8NI35
Inadl_1, Q8NI35, sequence (Q8NI35 113-229): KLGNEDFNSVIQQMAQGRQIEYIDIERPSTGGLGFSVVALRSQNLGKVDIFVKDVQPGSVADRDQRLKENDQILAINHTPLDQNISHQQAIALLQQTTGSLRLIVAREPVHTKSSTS

Inadl_2, Q8NI35 = target: Inadl_2, Q8NI35
Inadl_2, Q8NI35, sequence (Q8NI35 238-335): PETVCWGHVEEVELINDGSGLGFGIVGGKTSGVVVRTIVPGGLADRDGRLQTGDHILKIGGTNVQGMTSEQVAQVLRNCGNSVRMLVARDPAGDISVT

Inadl_3, Q8NI35 = target: Inadl_3, Q8NI35
Inadl_3, Q8NI35, sequence (Q8NI35 359-469): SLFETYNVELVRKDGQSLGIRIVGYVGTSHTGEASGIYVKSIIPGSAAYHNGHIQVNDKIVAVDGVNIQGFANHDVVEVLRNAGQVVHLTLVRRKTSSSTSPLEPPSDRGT

Inadl_4, Q8NI35 = target: Inadl_4, Q8NI35
Inadl_4, Q8NI35, sequence (Q8NI35 547-651): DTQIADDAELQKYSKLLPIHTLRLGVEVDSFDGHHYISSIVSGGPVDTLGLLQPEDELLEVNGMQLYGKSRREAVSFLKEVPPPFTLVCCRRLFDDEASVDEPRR

[1] = plain residues with an end cap or a label only (N-terminal biotin on a linker: ttds)
[2] = plain residues with an end cap or a label only (N-terminal biotin on a linker: ahx)

Binder: EMDRRPATVV [PLCB4, Q15147]
- pKd (APBA1_1, Q02410; [1]): below the threshold
- pKd (HTRA3, P83110; [1]): below the threshold
- pKd (GRIP1_5, Q9Y3R0; [1]): below the threshold
- pKd (NOS1, P29475; [1]): 4.11
- pKd (MAGI2_4, Q86UL8; [1]): 3.77
- pKd (FRMPD1, Q5SYB0; [1]): 3.61
- pKd (GIPC2, Q8TF65; [1]): 3.48
- pKd (GRIP1_4, Q9Y3R0; [1]): below the threshold
- pKd (SCRIB_2, Q14160; [1]): below the threshold
- pKd (TIAM2, Q8IVF5; [1]): below the threshold
- pKd (HTRA1, Q92743; [1]): 4.23
- pKd (TJP3_3, O95049; [1]): below the threshold
- pKd (DLG4_3, P78352; [1]): 3.95
- pKd (DFNB31_2, Q9P202; [1]): 3.51
- pKd (APBA1_2, Q02410; [1]): 3.79
- pKd (GOPC, Q9HD26; [1]): 4.04
- pKd (PDZRN3_1, Q9UPQ7; [1]): 4.08
- pKd (SCRIB_3, Q14160; [1]): 4.1
- pKd (HTRA4, P83105; [1]): 3.6
- pKd (MPDZ_10, O75970): 3.7
- pKd (TJP2_1, Q9UDY2; [1]): below the threshold
- pKd (NHERF4_1, Q86UT5-2; [1]): below the threshold

Binder: RLQRRRETQV [HPV18-E6, P06463]
- pKd (APBA1_1, Q02410; [1]): below the threshold
- pKd (HTRA3, P83110; [1]): below the threshold
- pKd (GRIP1_5, Q9Y3R0; [1]): below the threshold
- pKd (Inadl_1, Q8NI35; [1]): below the threshold
- pKd (NOS1, P29475; [1]): 3.71
- pKd (MAGI2_4, Q86UL8; [1]): 4.28
- pKd (FRMPD1, Q5SYB0; [1]): below the threshold
- pKd (GIPC2, Q8TF65; [1]): below the threshold
- pKd (GRIP1_4, Q9Y3R0; [1]): below the threshold
- pKd (SCRIB_2, Q14160; [1]): 4.44
- pKd (TIAM2, Q8IVF5; [1]): below the threshold
- pKd (HTRA1, Q92743; [1]): below the threshold
- pKd (TJP3_3, O95049; [1]): below the threshold
- pKd (DLG4_3, P78352; [1]): 5.74
- pKd (DFNB31_2, Q9P202; [1]): below the threshold
- pKd (APBA1_2, Q02410; [1]): below the threshold
- pKd (Inadl_2, Q8NI35; [1]): below the threshold
- pKd (Inadl_3, Q8NI35; [1]): below the threshold
- pKd (PDZRN3_1, Q9UPQ7; [1]): 4.82
- pKd (SCRIB_3, Q14160; [1]): 4.84
- pKd (Inadl_4, Q8NI35; [1]): below the threshold
- pKd (HTRA4, P83105; [1]): below the threshold
- pKd (MPDZ_10, O75970): 3.56
- pKd (TJP2_1, Q9UDY2; [1]): 3.89
- pKd (NHERF4_1, Q86UT5-2; [1]): below the threshold

Binder: PSASCAVTAA [PDLIM4, P50479;P50479-2]
- pKd (APBA1_1, Q02410; [2]): below the threshold
- pKd (HTRA3, P83110; [2]): below the threshold
- pKd (GRIP1_5, Q9Y3R0; [2]): below the threshold
- pKd (Inadl_1, Q8NI35; [2]): below the threshold
- pKd (NOS1, P29475; [2]): below the threshold
- pKd (MAGI2_4, Q86UL8; [2]): below the threshold
- pKd (FRMPD1, Q5SYB0; [2]): below the threshold
- pKd (GIPC2, Q8TF65; [2]): below the threshold
- pKd (GRIP1_4, Q9Y3R0; [2]): below the threshold
- pKd (SCRIB_2, Q14160; [2]): below the threshold
- pKd (TIAM2, Q8IVF5; [2]): below the threshold
- pKd (HTRA1, Q92743; [2]): below the threshold
- pKd (TJP3_3, O95049; [2]): below the threshold
- pKd (DLG4_3, P78352; [2]): below the threshold
- pKd (DFNB31_2, Q9P202; [2]): below the threshold
- pKd (APBA1_2, Q02410; [2]): below the threshold
- pKd (Inadl_2, Q8NI35; [2]): below the threshold
- pKd (GOPC, Q9HD26; [2]): below the threshold
- pKd (Inadl_3, Q8NI35; [2]): below the threshold
- pKd (PDZRN3_1, Q9UPQ7; [2]): below the threshold
- pKd (SCRIB_3, Q14160; [2]): below the threshold
- pKd (Inadl_4, Q8NI35; [2]): below the threshold
- pKd (HTRA4, P83105; [2]): below the threshold
- pKd (TJP2_1, Q9UDY2; [2]): below the threshold
- pKd (NHERF4_1, Q86UT5-2; [2]): below the threshold
